PMC3539332

Target: Arfrp1-His (UniProt Q13795)
Assay: liposome flotation; liposomes incubated with Arfrp1-His (1.5 μg) and 100 μM GDP or GTPγS, with or without 1 μg MBP-Vangl2 cytosolic domain, in HKM buffer at room temperature for 45 min, then 2 μg purified AP-1 for 1 hr; sucrose flotation; γ1-adaptin in the top fraction by immunoblot, normalised to lipid

Chain of UniProt Q13795 (Q13795 whole entry, the tested form may be a part): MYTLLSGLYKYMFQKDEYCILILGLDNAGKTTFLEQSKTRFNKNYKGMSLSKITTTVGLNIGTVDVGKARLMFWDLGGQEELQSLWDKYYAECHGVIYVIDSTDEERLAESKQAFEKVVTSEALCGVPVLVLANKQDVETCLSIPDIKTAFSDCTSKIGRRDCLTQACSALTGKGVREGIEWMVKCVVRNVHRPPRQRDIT

fold change of membrane recruitment of AP-1 with both Vangl2 cytosolic domain and Arfrp1-GTPγS: 3 fold
Substance: purified AP-1 complex (from UniProt Q2KJ81 1-423)
